# ± gives the standard error. This sample holds only a part of the variants without activity.
# B1: glmS ribozyme (parent)
# chain: AUAAAAGCGCCAGAACUACAGAAAUGUAGUUGACGAGGAGGAGGUUUAUCGAAUUUUCGGCGGAUGCCUCCAAA
# Variants of: B1
# Experiment: self-cleavage kobs at 2500 uM GlcN6P; higher = faster cleavage; RNA array
# Settings: with glucosamine-6-phosphate
# In short: (§1)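 Glucosamine-6-phosphate (40 μM to 10 mM) in HEPES/KCl/Mg(OAc)2 buffer was flowed over sequenced MiSeq chips, and tiles were imaged over ~14 h. Barcoded ribozyme variants there had been transcribed in situ by E. coli RNA polymerase and were tracked through a hybridised Cy3 probe at 37 °C. One- or two-exponential decay fits to per-tile medians, normalised to baseline and to non-cleaving reference variants, gave kobs. kcat and KM came from weighted Michaelis–Menten fits across concentrations.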
row,Variant,self-cleavage kobs at 2500 uM GlcN6P
1,A6U C34A G44A,< 1e-05 s⁻¹
2,C11A G51C G63U,< 1e-05 s⁻¹
3,U30G C34A G60U,< 1e-05 s⁻¹
4,G9U G35U G37C G51C,< 1e-05 s⁻¹
5,A14C U30G C58G,5.75e-05 ± 2.4e-05 s⁻¹
6,U31C G40U U46G,3.61e-05 ± 1.5e-05 s⁻¹
7,G7A G51U U54G,< 1e-05 s⁻¹
8,C11U U49C G63C,< 1e-05 s⁻¹
9,C50A U55A C70U,5.24e-05 ± 2.1e-05 s⁻¹
10,C11U A48C G62U,< 1e-05 s⁻¹
11,C16A G41C C70U,5.88e-05 ± 1.8e-05 s⁻¹
12,C8G C10G C70G,< 1e-05 s⁻¹
13,A39G G41U A42G,0.000339 ± 9.9e-05 s⁻¹
14,C16A A36G U65G,< 1e-05 s⁻¹
15,C8A C11U C70U,< 1e-05 s⁻¹
16,C11U G40U A42U G44A,< 1e-05 s⁻¹
17,U31C G38U A53U,< 1e-05 s⁻¹
18,C34U U46G G66U,< 1e-05 s⁻¹
19,A33G G35A A36C G41A C61G C68G,< 1e-05 s⁻¹
20,G43C C58G,< 1e-05 s⁻¹
21,C16A G40C A42U,< 1e-05 s⁻¹
22,G9U A33G A53C,< 1e-05 s⁻¹
23,G13C A14C G35C,< 1e-05 s⁻¹

row,Variant,self-cleavage kobs at 2500 uM GlcN6P
1,C10A G40U U56A U65C,< 1e-05 s⁻¹
2,C11A G21U A39C U46A U57C,< 1e-05 s⁻¹
3,A15U A33U G59U,< 1e-05 s⁻¹
4,A6G G51U C58U,< 1e-05 s⁻¹
5,C16A U46C U56C G63U C70U,< 1e-05 s⁻¹
6,C16G G51A G60A G63A C70A,4.28e-05 ± 1.9e-05 s⁻¹
7,C8A G29U C68G,< 1e-05 s⁻¹
8,A14C U31G A64C,6.13e-05 ± 2.2e-05 s⁻¹
9,G41U A42U A52G U56A,3.73e-05 ± 1.2e-05 s⁻¹
10,A12C A15G G66U C67A,0.000636 ± 0.00013 s⁻¹
11,G13A U31G A36G,< 1e-05 s⁻¹
12,U31C G32C G37U G41C U46A A53U U55A A64C,< 1e-05 s⁻¹
13,A14U U45C G60C G63C,< 1e-05 s⁻¹
14,C10A A12U G37U G44U C50G A53G C68U,< 1e-05 s⁻¹
15,C16A G43U G51A,< 1e-05 s⁻¹
16,A6U U31C C50A U56G,< 1e-05 s⁻¹
17,G38A A52G U57A C68A,7.01e-05 ± 1.7e-05 s⁻¹
18,A12G G13U G51U G63U C70A,0.000271 ± 9.9e-05 s⁻¹
19,G7A C67A U69A,< 1e-05 s⁻¹
20,A6U C50U C68G C71A,8.39e-05 ± 3e-05 s⁻¹
21,A15U U46C C70G,8.21e-05 ± 2.2e-05 s⁻¹
22,A52C G59C A64U,< 1e-05 s⁻¹
23,G13C U55A,6.85e-05 ± 1.6e-05 s⁻¹

row,Variant,self-cleavage kobs at 2500 uM GlcN6P
1,U30C G44A G66U,< 1e-05 s⁻¹
2,A39G G41U C68G,< 1e-05 s⁻¹
3,G13A C34A A39G G59A G62C,< 1e-05 s⁻¹
4,A15U G32C A36C G40C,< 1e-05 s⁻¹
5,A33C A36C G38U G41A G66C,< 1e-05 s⁻¹
6,C8U C10A A39C,< 1e-05 s⁻¹
7,A14U A15U G40U,0.000122 ± 3.7e-05 s⁻¹
8,A6U G37C C68U,< 1e-05 s⁻¹
9,C8A C10G A39C,< 1e-05 s⁻¹
10,A36U U54G U57A,< 1e-05 s⁻¹
11,A4C,0.0314 ± 0.0074 s⁻¹
12,C11U U30G U45A,0.00111 ± 0.00024 s⁻¹
13,A14G A48G C71U,0.000156 ± 5.8e-05 s⁻¹
14,C16U U30C G32U G35U U47G,< 1e-05 s⁻¹
15,G7U A33C G59U G60U,< 1e-05 s⁻¹
16,G40U U54G C68U,0.000121 ± 4.4e-05 s⁻¹
17,G37U A42U U54G U57A C67A,< 1e-05 s⁻¹
18,A6G C10G U30A G32U U56G,< 1e-05 s⁻¹
19,A14U A36U C71U,< 1e-05 s⁻¹
20,C10U A36U G40U,< 1e-05 s⁻¹
21,A14G U30C A39C U54A,0.000132 ± 2.6e-05 s⁻¹
22,G9A G29C G38C A64U,< 1e-05 s⁻¹
23,A6U A36C U55G,< 1e-05 s⁻¹

row,Variant,self-cleavage kobs at 2500 uM GlcN6P
1,C8A C58U A64U C67G,< 1e-05 s⁻¹
2,G32C G41A G63A C70U,< 1e-05 s⁻¹
3,A12G A39U U49G U55G,< 1e-05 s⁻¹
4,G9U U31G G44U C61U,< 1e-05 s⁻¹
5,G32C U54G A64U,< 1e-05 s⁻¹
6,C11A C34A G41A,< 1e-05 s⁻¹
7,C34A A48C U54A,< 1e-05 s⁻¹
8,A6C G37C,< 1e-05 s⁻¹
9,A15C U57A C67G,5.01e-05 ± 2.4e-05 s⁻¹
10,U45G U56G A64G,0.00171 ± 0.00054 s⁻¹
11,A36G G40C G59U,< 1e-05 s⁻¹
12,A6U C8A U56A,< 1e-05 s⁻¹
13,G32A C58U C68G,0.000103 ± 3.5e-05 s⁻¹
14,G13U A14G A36G U55A,< 1e-05 s⁻¹
15,G9C A14G U69G,< 1e-05 s⁻¹
16,A14G C16U A36G,4.05e-05 ± 1.5e-05 s⁻¹
17,G38C U57G G59A A64G,< 1e-05 s⁻¹
18,C8U G32U C34U C58G,< 1e-05 s⁻¹
19,C11A C34A C58U C61G G62A,< 1e-05 s⁻¹
20,A53C C61A G62U,< 1e-05 s⁻¹
21,U30A G32C,6.18e-05 ± 2.8e-05 s⁻¹
22,G32C G44A U45C,< 1e-05 s⁻¹
23,A12G C34A U45A,< 1e-05 s⁻¹

row,Variant,self-cleavage kobs at 2500 uM GlcN6P
1,A6C A33U G37C A42U A48C U56A G59U C68G,< 1e-05 s⁻¹
2,U30C G43A U46G C67U,< 1e-05 s⁻¹
3,A15C G37U A39G,< 1e-05 s⁻¹
4,G41C U47C C61G C67U,< 1e-05 s⁻¹
5,A6U G35U U45A U57A,< 1e-05 s⁻¹
6,G9U A12C A14C A48G U49A,< 1e-05 s⁻¹
7,G13U G38U U54G G62A,< 1e-05 s⁻¹
8,G9U C16U A33U,< 1e-05 s⁻¹
9,G13C C16G U69G,7.16e-05 ± 3.5e-05 s⁻¹
10,C8A G13C U65C,< 1e-05 s⁻¹
11,C16G G37U A42G,< 1e-05 s⁻¹
12,G35C A42U A48C G63U,< 1e-05 s⁻¹
13,A15C G66C,0.000277 ± 0.00013 s⁻¹
14,G44U G60U C71A,< 1e-05 s⁻¹
15,G43U U45C C71G,< 1e-05 s⁻¹
16,G41U U55C C61G,< 1e-05 s⁻¹
17,A12G A39C A42U,3.14e-05 ± 1.5e-05 s⁻¹
18,A12G G63A,< 1e-05 s⁻¹
19,A12U A14G U46A C50G,< 1e-05 s⁻¹
20,A6C A14C G32A G38U,< 1e-05 s⁻¹
21,A39C G59A G63U,< 1e-05 s⁻¹
22,A12G U54A U55G,0.000119 ± 4.5e-05 s⁻¹
23,C8G C10U C11U G13A C34G,< 1e-05 s⁻¹

row,Variant,self-cleavage kobs at 2500 uM GlcN6P
1,C8G U69G,< 1e-05 s⁻¹
2,A6U C16G G29U G43C U47G U54C,< 1e-05 s⁻¹
3,G13A G44U A64U,< 1e-05 s⁻¹
4,G32C G38A U47A C58U A64C U69G,0.000153 ± 4.8e-05 s⁻¹
5,A36U G59C G63U,< 1e-05 s⁻¹
6,G7U A14C U56C,< 1e-05 s⁻¹
7,G32U A42C A53C U55A,< 1e-05 s⁻¹
8,U47A A48U U55A G60A,< 1e-05 s⁻¹
9,A15U G35U G40A,< 1e-05 s⁻¹
10,A15C U47C U55C,0.000237 ± 7.7e-05 s⁻¹
11,G32A G43U G66A C68G,0.00088 ± 0.0003 s⁻¹
12,U31G A33U C68G,< 1e-05 s⁻¹
13,A42G U45C C70U,0.00265 ± 0.00085 s⁻¹
14,C10A U45G U54G,< 1e-05 s⁻¹
15,A6C G7U U54C,< 1e-05 s⁻¹
16,U30C C50G G63C,0.00014 ± 5.2e-05 s⁻¹
17,A6U A14C G35A,< 1e-05 s⁻¹
18,A15U A39G A52G,0.000162 ± 6.5e-05 s⁻¹
19,U30G U57A,4.22e-05 ± 1.5e-05 s⁻¹
20,C8G G29C G38C U57C,< 1e-05 s⁻¹
21,A52U A53C C67G,< 1e-05 s⁻¹
22,G29A U65G,0.000664 ± 0.00023 s⁻¹
23,A52U U55C A64G,4.16e-05 ± 1.5e-05 s⁻¹

row,Variant,self-cleavage kobs at 2500 uM GlcN6P
1,C16G G32C G41U U69C,< 1e-05 s⁻¹
2,C10U G40A C70G,< 1e-05 s⁻¹
3,A12C G13C A42U U49C,< 1e-05 s⁻¹
4,A39G U57A,0.000309 ± 7e-05 s⁻¹
5,A6U A39U G41C,< 1e-05 s⁻¹
6,G7U G13U A42U G44C,< 1e-05 s⁻¹
7,A52C C58U G59U,< 1e-05 s⁻¹
8,C34A G43A A64G,< 1e-05 s⁻¹
9,G13U U30G G32C,4.58e-05 ± 1.5e-05 s⁻¹
10,C8G A33G A42G U55G,< 1e-05 s⁻¹
11,C10G C19A A39U U69C,< 1e-05 s⁻¹
12,C8G A12U A39U,< 1e-05 s⁻¹
13,C34A G41A U47C,< 1e-05 s⁻¹
14,U57A A64U C67U U69G,8.87e-05 ± 2.4e-05 s⁻¹
15,A15U G37A G66C,7.17e-05 ± 1.8e-05 s⁻¹
16,C16G A42G A64U G66A C68A,< 1e-05 s⁻¹
17,A14G A52U A53G,0.000141 ± 3.3e-05 s⁻¹
18,C10A A12C U30A U31A,5.52e-05 ± 2.3e-05 s⁻¹
19,A14U U30G U31C A53U,0.00047 ± 0.00013 s⁻¹
20,C11G A15C U45C C68G,< 1e-05 s⁻¹
21,U45A U54G C68G,9.7e-05 ± 3.2e-05 s⁻¹
22,G44U C50G U56G,< 1e-05 s⁻¹

# Variants of: B1
# Experiment: self-cleavage kobs at 10000 uM GlcN6P; higher = faster cleavage; RNA array
# Settings: with glucosamine-6-phosphate
# In short: as §1
row,Variant,self-cleavage kobs at 10000 uM GlcN6P
1,C8G C10G C70G,< 1e-05 s⁻¹
2,C8A G29U C68G,< 1e-05 s⁻¹
3,A15U U46C C70G,3.23e-05 ± 1.5e-05 s⁻¹
4,A14U A15U G40U,0.000149 ± 2.6e-05 s⁻¹
5,A6U G37C C68U,< 1e-05 s⁻¹
6,A14G U30C A39C U54A,0.000156 ± 2.5e-05 s⁻¹
7,A6C G37C,< 1e-05 s⁻¹
8,U30A G32C,0.000203 ± 5.8e-05 s⁻¹
9,A12G C34A U45A,< 1e-05 s⁻¹
10,A12G G63A,< 1e-05 s⁻¹
11,C8G C10U C11U G13A C34G,< 1e-05 s⁻¹
12,A42G U45C C70U,0.00197 ± 0.00052 s⁻¹
13,A15U A39G A52G,0.000571 ± 0.00013 s⁻¹
14,U30G U57A,8.3e-05 ± 1.8e-05 s⁻¹
15,G29A U65G,0.00113 ± 0.00027 s⁻¹
16,A39G U57A,0.000335 ± 6.1e-05 s⁻¹
